Assay results from patent US20260146091A1.

Columns and labels:
mPD-1 (mouse) = mPD-1 (mouse) (UniProt Q02242); assay: mPD-1/mPD-L1 binding inhibition
mPDL-1 (mouse) = mPDL-1 (mouse) (UniProt Q9EP73); assay: mPD-1/mPD-L1 binding inhibition
Sequence of mPDL-1 (mouse) (Q9EP73 19-239): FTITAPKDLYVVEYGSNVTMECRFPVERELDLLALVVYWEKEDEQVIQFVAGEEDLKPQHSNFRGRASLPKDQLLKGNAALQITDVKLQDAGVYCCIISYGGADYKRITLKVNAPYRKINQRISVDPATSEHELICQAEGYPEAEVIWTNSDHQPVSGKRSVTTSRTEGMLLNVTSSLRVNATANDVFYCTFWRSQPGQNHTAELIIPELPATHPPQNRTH

Sequence of mPD-1 (mouse) (Q02242 25-169): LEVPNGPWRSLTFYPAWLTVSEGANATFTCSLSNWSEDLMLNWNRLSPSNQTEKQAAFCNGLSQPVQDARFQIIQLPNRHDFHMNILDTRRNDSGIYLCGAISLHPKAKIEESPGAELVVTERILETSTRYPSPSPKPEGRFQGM

| IC50 (mPD-1 (mouse)) | IC50 (mPDL-1 (mouse)) | Substance |
| --- | --- | --- |
| 31.1 nM |  | Clone RMPI-14 |
|  | 1.09 nM | Clone 10F.9G2 |
